# Patent US20180022822A1, “NOVEL ANTI-FIBROBLAST ACTIVATION PROTEIN (FAP) BINDING AGENTS AND USES THEREOF” (Mabimmune Diagnostics AG, priority 2016, published 2018)
# T1: directly coated FAP (FAP) (Homo sapiens, UniProt Q12884)
# T1 sequence (Q12884 1-760): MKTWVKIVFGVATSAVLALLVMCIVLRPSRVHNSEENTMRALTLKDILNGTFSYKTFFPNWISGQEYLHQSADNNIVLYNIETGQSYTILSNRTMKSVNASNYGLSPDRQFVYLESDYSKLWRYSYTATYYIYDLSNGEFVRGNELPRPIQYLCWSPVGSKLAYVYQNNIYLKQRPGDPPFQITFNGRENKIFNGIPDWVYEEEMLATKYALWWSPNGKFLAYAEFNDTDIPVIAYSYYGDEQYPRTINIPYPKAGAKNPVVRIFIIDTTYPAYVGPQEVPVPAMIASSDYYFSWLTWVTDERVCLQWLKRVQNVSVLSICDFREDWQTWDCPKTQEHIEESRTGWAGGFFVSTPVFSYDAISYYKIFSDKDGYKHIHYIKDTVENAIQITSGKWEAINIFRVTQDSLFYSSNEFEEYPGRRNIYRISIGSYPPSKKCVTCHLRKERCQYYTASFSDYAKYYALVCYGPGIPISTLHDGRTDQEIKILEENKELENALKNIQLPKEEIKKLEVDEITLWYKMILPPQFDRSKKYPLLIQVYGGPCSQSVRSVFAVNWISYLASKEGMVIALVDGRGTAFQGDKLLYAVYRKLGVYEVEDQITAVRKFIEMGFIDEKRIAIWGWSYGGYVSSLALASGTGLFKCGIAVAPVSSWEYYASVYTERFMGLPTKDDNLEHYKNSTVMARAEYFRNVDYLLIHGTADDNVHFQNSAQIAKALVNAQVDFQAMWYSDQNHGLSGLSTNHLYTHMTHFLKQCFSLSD
# T2: captured FAP (sFAP) (Homo sapiens, UniProt Q12884)
# T2 sequence (Q12884 1-760): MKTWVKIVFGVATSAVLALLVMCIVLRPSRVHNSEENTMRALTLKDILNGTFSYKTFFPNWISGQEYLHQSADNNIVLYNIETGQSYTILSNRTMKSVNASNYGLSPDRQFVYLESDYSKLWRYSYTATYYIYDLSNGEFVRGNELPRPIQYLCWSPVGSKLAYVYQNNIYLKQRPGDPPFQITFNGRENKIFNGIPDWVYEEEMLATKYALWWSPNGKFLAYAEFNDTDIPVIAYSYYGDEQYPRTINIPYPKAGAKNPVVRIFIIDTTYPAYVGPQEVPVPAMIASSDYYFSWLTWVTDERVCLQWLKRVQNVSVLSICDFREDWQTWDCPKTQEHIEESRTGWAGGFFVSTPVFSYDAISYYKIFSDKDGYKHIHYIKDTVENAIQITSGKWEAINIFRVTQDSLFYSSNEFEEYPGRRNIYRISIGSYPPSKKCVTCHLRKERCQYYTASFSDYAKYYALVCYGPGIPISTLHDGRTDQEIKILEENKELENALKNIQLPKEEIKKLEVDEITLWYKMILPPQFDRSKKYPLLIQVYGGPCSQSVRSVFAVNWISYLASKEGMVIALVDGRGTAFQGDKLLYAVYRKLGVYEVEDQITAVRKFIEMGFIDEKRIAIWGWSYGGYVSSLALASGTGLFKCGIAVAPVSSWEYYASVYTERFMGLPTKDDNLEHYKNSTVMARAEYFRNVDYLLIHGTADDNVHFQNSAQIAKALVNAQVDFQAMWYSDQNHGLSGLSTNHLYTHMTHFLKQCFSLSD
# T3: recombinant human FAP (sFAP, FAP) versus CD26 and unrelated human antigens (A-N) (Homo sapiens, UniProt Q12884)
# T3 sequence (Q12884 26-760 limits assumed): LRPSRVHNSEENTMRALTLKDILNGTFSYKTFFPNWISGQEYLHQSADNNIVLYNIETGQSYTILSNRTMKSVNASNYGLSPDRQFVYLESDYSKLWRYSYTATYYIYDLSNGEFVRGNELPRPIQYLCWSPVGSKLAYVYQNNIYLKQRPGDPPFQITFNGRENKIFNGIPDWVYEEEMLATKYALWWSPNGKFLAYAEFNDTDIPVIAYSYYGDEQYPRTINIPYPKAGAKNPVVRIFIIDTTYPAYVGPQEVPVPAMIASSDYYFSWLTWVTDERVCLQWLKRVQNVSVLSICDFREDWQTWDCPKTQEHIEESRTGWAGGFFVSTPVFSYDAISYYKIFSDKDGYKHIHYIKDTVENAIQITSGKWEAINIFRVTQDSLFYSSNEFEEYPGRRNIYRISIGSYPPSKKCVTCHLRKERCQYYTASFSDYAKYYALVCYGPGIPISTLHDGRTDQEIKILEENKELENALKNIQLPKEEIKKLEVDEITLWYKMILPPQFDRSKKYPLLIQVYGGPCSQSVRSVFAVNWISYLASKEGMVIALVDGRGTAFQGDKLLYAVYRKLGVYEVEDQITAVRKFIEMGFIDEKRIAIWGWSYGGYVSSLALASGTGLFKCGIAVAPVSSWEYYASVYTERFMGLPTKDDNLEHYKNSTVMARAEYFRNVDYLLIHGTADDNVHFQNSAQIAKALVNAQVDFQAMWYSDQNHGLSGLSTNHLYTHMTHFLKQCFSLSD
# Legend:
# [1] = target: T1, directly coated FAP (FAP); experiment: direct ELISA on directly coated FAP; type: binding; conditions: ELISA, varying antibody concentrations
# Experimental: (§1) ELISA assays were performed with varying antibody concentrations to validate the binding of the exemplary antibodies of the present invention to FAP and to be able to determine their half maximal effective concentration (EC50). For the exemplary recombinant human NI-206-18H2, NI-206-20A8, NI-206-6D3, ‘NI-206-14C5, NI-206-34C11, NI-206.82C2, NI-206.59B4, NI-206.22F7, NI-206.27E8, NI-206.12G4 and NI-206.17A6 antibodies, 96-well microplates (Costar, Corning, USA) were coated with FAP, with a mixture of the 3 peptides or with BSA (Sigma-Aldrich, Buchs, Switzerland) diluted to a concentration of 5 μg/ml in carbonate ELISA coating buffer (15 mM Na2CO3, 35 mM NaHCO3, pH 9.4) for the direct ELISA. For the capture ELISA, the microplates were coated with mouse anti-His monoclonal antibody (Clontech) diluted to a concentration of 3 μg/ml in PBS, the plates were then blocked, FAP or BSA were diluted to a concentration of 2 μg/ml in PBS and added to the plates to be captured. The binding efficiency of the antibodies was then tested.
# (§2) The EC50 values were estimated by a non-linear regression using GraphPad Prism (San Diego, USA) software. […] The binding of NI-206.12G4 towards sFAP was not tested.
# [2] = system: directly coated FAP peptides mixture (cFAP); experiment: direct ELISA on coated mixture of FAP peptides; type: binding, human; conditions: peptides 378-392, 622-636, 721-736
# Experimental: as §1, §2
# [3] = target: T4, BSA (Bos taurus, UniProt P02769); experiment: ELISA control binding to BSA; design: species or system bovine
# T4 construct: purchased Sigma-Aldrich
# T4 sequence (P02769 25-607): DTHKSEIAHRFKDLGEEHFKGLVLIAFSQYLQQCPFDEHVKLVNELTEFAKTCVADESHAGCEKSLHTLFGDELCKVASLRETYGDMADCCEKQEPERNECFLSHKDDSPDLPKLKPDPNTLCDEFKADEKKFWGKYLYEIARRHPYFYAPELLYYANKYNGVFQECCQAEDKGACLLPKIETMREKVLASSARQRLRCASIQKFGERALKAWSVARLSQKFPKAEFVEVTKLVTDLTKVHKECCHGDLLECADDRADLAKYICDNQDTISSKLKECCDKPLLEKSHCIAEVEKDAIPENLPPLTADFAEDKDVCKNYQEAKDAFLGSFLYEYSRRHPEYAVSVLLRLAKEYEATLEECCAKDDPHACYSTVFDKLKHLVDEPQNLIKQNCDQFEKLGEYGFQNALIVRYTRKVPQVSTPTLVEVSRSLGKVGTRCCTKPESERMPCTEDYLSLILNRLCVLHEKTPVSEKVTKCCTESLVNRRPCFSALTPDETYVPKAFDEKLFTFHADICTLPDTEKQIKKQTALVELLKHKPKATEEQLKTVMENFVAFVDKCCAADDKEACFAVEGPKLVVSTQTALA
# Experimental: as §1
# [4] = target: T2, captured FAP (sFAP); experiment: capture ELISA, FAP captured via his-tag with coated anti-His antibody; type: binding; conditions: ELISA, varying antibody concentrations
# Experimental: as §1, §2
# [5] = target: T3, recombinant human FAP (sFAP, FAP) versus CD26 and unrelated human antigens (A-N); experiment: binding specificity ELISA against FAP versus unrelated human antigens; conditions: detection antibody at 20, 4 and 0.8 nM
# Experimental: A mouse anti-6×-histidine tag antibody (Clonetech) was coated at a concentration of 3 μg/ml in PBS to a 96 well ELISA plate, the plates were then blocked with 5% BSA in PBS, and enzymatically active recombinant human FAP with an N-terminus 6× histidine tag was added to the plates to be captured. The binding efficiency of NI-206.82C2, NI-206.18H2, NI-206.20A8 and NI-206.6D3 (at 20 nM, 4 nM, and 0.8 nM) against sFAP and of NI-206.18H2, NI-206.20A8 and NI-206.6D3 against FAP as well was then tested by 1 hour incubation, followed by washing with PBS and detection with an HRP-labelled goat anti-human antibody (Jackson Immunoresearch) using a colormetric assay. To assess NI-206.82C2, NI-206.18H2, NI-206.20A8 and NI-206.6D3 binding other targets, recombinant human CD26 (only in case of NI-206.82C2) and fourteen other unrelated recombinant human proteins (A-N) were individually added to a 96-well ELISA plate in triplicate, and the binding efficacy of NI-206.82C2 was evaluated. (FIG. 7A to D)
molecule,measurement,setting,value
"NI-206.20A8: human-derived recombinant anti-FAP antibody; VH SEQ ID NO: 45, VL SEQ ID NO: 47 (antibody, listed as Homo sapiens, V domains shown) VH: EVQLVESGGGLVQPGGSLKLSCAGSGLDLSASAVHWVRQASGKGLEWIGRIRSKPNHYATTYLASVRGRFILSRDDSENTAYLQMNSLRTEDTAVYYCRIGILNSDHWGRGTLVTVSS VL: QSVLTQPPSASGTPGQTVIISCSGSSSNLGRKTLNWYQQLPGAAPKLLIFKNDQRASGVPDRFSASKSGTSASLTISGLQSDDEADYYCGTWDDSLDNWVFGGGTKVTVL",binding to the directly coated FAP,[1],binds less efficiently
same,EC50 to the directly coated FAP peptides mixture (cFAP),[2],did not show any binding
same,binding to BSA,[3],does not bind
same,binding to the captured FAP,[4],binds less efficiently
same,colorimetric ELISA signal against FAP versus panel of unrelated human antigens,[5],significantly greater
